Source: PMC10774353, “Multi-scale structures of the mammalian radial spoke and divergence of axonemal complexes in ependymal cilia” (Nature Communications, 2024)

B1: FLAG-tagged Rsph16 (natural protein, mouse, UniProt Q80Y75 1-316, looked up)
chain: MGLDYYAVLQVTRNSEDAQIKKAYRKLALKNHPLKSSEPGAPEIFKQIAEAYDVLSDPVKRGIYDKFGEEGLKGGIPLEFGSQTPWTTGYVFHGNPDKVFHEFFGGDNPFSEFFDAEGNDIDLNFGGLWGRGVQKQDPPIERDLYLSLEDLFFGCTKKIKISRRVLNEDRYSSTIKDKILTIDVRPGWRQGTRITFEKEGDQGPNIIPADIIFIVKEKLHPRFRREHDNLFFVYPIPLGKALTCCTVEVKTLDDRLLNIPINDIVHPKYFKIVPGEGMPLPENPSKKGDLFIFFDIQFPTRLTPQKKQMLRQALLT
notes: Rsph16 (homologue of HSP40, DnaJ family), mouse, NM_153527; full-length gene amplified from cDNAs of mouse ependymal cells, in pcDNA3.4; Stands as a homodimer (the arch bridge Rsph16-Rsph16') in both the head-neck monomer and the head-neck dimer; not shown: 3xFLAG, N-terminal, kept
B2: Rsph3b (natural protein, mouse)
chain: MTDRNPRTAEASGLYTYSSRPRAVACQRRRHRDSILQPVEEPMSYGNIMYDRRVIRGNTYALPTGQVPGQPDPLELQRQQQARRRALARKRAQEQLKPRTPEPVEGRKHVDIQTELYLEEIADRIVEVDMECQTDAFLDRPPTPLFIPAKTGKDVATQILGGELFDFDLEVKPMLEVLVGKTIEQSLLEVMEEEELANLRARQYAYEEIRNVELAEVQRLEEQERRHREEKERRKKQQWEIVHKRNETLQKISALIFARQYLANLLPSVFDKLRNSGFFYDPIERDIEVGFLPWLMNEVEKSMEHSMVGRTVLDMLIRDVVERRINDYEHKEAMPPGQKTNVINGPNTVTDPSVTTLHTQKPVLDRVSSQPAPSQERKPVEEGGHLMAE
notes: Rsph3b (radial spoke head protein 3 homolog B), mouse, NM_001083945; non-tagged, in pcDNA3.4; Non-tagged
B3: Rsph9 (natural protein, mouse)
chain: MDADSLLLSLELASGSGQGLSPDRRASLLTSLMLVKRDYRFARVLFWGRILGLVADYYIAQGLSEDQLAPRKTLYSLNCTEWSLLPPATEEMAMQISVVSGRFMGDPSHEYEHTELQKVNEGEKVFDEEVVVQIKEETRLVSIIDQIDKAVAIIPRGALFKTPFGVTHVNRTFEGLPLSEVRKLSSYFHFREAIDLKNKTLLEKSDLEPSLDFLDSLEYDIPRGSWSIQMERGNALVVLRSLLWPGLTFYHAPRTKNYGYIYVGTGEKNMDLPFML
notes: Rsph9 (radial spoke head protein 9 homolog), mouse, NM_029338; non-tagged, in pcDNA3.4; Two copies stand in each RS head; Non-tagged
B4: Rsph23 (natural protein, mouse)
chain: MEVSMPLPQIYVEKTLALIKPDVVDKEEEIQDIILGSGFTIIQRRKLHLSPEHCSNFYVEQYGKMFFPNLTAYMSSGPLVAMILARHKAISYWKELMGPSNSLVAKETHPDSLRAIYGTDELRNALHGSNDFAASEREIRFMFPAVIIEPIPIGQAAKDYINLYVAPTLLQGLTELCKEKPPDPYLWLADWLMKNNPNKPKLCHFPVTEEP
notes: Rsph23, mouse, NM_080637

Key:
Experiment in all cases: cryo-EM structure; RS head-neck complex co-expressed in HEK293F, purified by Strep-Tactin then anti-FLAG beads, cross-linked by GraFix (0-0.1% glutaraldehyde, 10-40% glycerol, 4 °C); monomer map 3.28 Å, dimer map 3.57 Å
[1] = target: the molecule itself
[2] = target: T1, Rsph4a (mouse, UniProt Q8BYM7 1-716); details: both partners purified
T1 construct: Rsph4a (radial spoke head protein 4 homolog A), mouse, NM_001162957; Two copies stand in each RS head
T1 sequence: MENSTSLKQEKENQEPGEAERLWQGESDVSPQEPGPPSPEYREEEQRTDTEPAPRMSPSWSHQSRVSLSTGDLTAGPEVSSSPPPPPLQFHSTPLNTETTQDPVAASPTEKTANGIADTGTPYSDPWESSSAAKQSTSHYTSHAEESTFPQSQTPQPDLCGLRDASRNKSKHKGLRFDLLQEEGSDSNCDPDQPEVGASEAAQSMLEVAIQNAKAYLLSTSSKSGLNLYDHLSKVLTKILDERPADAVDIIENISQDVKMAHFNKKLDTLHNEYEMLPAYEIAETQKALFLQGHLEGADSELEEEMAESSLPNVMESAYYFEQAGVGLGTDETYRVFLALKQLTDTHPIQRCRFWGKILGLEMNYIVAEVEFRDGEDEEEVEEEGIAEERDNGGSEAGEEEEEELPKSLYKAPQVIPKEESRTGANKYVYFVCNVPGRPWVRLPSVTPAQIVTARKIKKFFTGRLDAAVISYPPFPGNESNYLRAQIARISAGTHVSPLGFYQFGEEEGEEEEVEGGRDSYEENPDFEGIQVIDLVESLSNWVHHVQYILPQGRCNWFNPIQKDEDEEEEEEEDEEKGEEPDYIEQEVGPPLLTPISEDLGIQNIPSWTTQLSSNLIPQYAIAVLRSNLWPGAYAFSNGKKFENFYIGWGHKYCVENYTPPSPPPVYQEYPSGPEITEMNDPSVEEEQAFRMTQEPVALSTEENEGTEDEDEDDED

[3] = target: B1; details: both partners purified
[4] = target: B2; details: both partners purified

Row | Binder | stoichiometry N [1] | binding result [2] | binding result [3] | binding result [4]
1 | B1 | 2 | – | – | –
2 | B2 | – | binds | – | –
3 | B3 | – | binds | binds | –
4 | B4 | – | – | binds | binds
